Experimental data from US12703750 (NORTHWESTERN UNIVERSITY, dated 2026).
Changes are numbered by the printed parent chain. Numbers in names are those of the source.

T1: Human IL13Rα2 (human, UniProt Q14627 27-343, limits assumed)
T1 construct: also called human recombinant IL13Rα2; Human IL13Ra2
T1 sequence (looked up): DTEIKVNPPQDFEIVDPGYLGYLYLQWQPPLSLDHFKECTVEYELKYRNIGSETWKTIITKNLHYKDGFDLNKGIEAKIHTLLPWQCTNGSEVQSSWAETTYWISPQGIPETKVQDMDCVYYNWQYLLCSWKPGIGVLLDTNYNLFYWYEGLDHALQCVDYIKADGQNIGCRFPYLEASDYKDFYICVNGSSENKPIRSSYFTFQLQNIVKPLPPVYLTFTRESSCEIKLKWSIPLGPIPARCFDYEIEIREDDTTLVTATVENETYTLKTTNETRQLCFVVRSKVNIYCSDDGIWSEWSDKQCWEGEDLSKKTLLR

T2: human recombinant IL13Rα2hFc (cat #7147-IR-100, R&D Systems) (human, UniProt Q14627 27-343)
T2 construct: Bought; also called recombinant human IL13Ra2; not shown: human Fc ('hFc') of the bought fusion protein
T2 sequence (looked up): T1 sequence (looked up)

B1: Chimeric antibody (VH and VL of murine Ab clone 47 in human constant regions) (antibody, V domains shown)
VH: QVQLQQPGAELVRPGASVKLSCKASGYTFSNYLMNWVKQRPEQDLDWIGRIDPYDGDIDYNQNFKDKAILTVDKSSSTAYMQLSSLTSEDSAVYYCARGYGTAYGVDYWGQGTSVTVSS
VL: not shown
notes: Full-length IgG, murine variable regions with human constant regions; also called chimeric IgG; Chimeric Ab
B2: Murine version of the BTE (scFv of anti-CD3 Okt3 and scFv of the murine anti-IL13Rα2 antibody) (bispecific antibody, V domains shown, not shown: small tags and cut ends)
VH: B1 VH
VL: not shown
notes: Control BTE; also called Okt3BTE; chimeric BTE using the mouse monoclonal Ab VH and VL domains
B3: Humanized antibody VH1 + VL1 (antibody, human IgG1, kappa, V domains shown)
VH: QVQLVQSGAEVKKPGSSVKVSCKASGYTFSNYLMNWVRQAPGQGLEWMGRIDPYDGDIDYNQNFKDRVTITADKSTSTAYMELSSLRSEDTAVYYCARGYGTAYGVDYWGQGTLVTVSS
VL: DIVMTQSPDSLAVSLGERATINCRASESVDNYGISFMNWYQQKPGQPPKLLIYAASRQGSGVPDRFSGSGSGTDFTLTISSLQAEDVAVYYCQQSKEVPWTFGGGTKLEIKR
notes: also called Humanized VH1-VL1; U3621EI120 VH1+VL1
B4: Humanized antibody VH2 + VL3 (antibody, human IgG1, kappa, V domains shown)
VH: B3 VH with S16A, G44R, A72R, K74T, T76A
VL: EIVLTQSPATLSLSPGERATLSCRASESVDNYGISFMNWYQQKPGQAPRLLIYAASRQGSGIPARFSGSGSGTDFTLTISSLEPEDFAVYYCQQSKEVPWTFGGGTKLEIKR
notes: also called U3621EI120 VH2+VL3
B5: Humanized antibody VH2 + VL2 (antibody, human IgG1, kappa, V domains shown)
VH: B3 VH with S16A, G44R, A72R, K74T, T76A
VL: DIQMTQSPSSLSASVGDRVTITCRASESVDNYGISFMNWYQQKPGKAPKLLIYAASRQGSGVPSRFSGSGSGTDFTLTISSLQPEDFATYYCQQSKEVPWTFGGGTKLEIKR
B6: Humanized antibody VH1 D52E-VL1 (antibody, human IgG1, kappa, V domains shown)
VH: B3 VH with D52E
VL: B3 VL
notes: also called VH1 MD52E-VL1
B7: Humanized antibody VH1 M34A-VL1 (antibody, human IgG1, kappa, V domains shown)
VH: B3 VH with M34A
VL: B3 VL
notes: Antibody purified on protein A
B8: Humanized antibody VH1 + VL2 (antibody, human IgG1, kappa, V domains shown)
VH: B3 VH
VL: B5 VL
B9: Humanized antibody VH2 + VL1 (antibody, human IgG1, kappa, V domains shown)
VH: B3 VH with S16A, G44R, A72R, K74T, T76A
VL: B3 VL
B10: Humanized antibody VH1-VL1 Q58E (antibody, human IgG1, kappa, V domains shown)
VH: B3 VH
VL: B3 VL with Q58E
B11: Humanized antibody VH2 + VL4 (antibody, human IgG1, kappa, V domains shown)
VH: B3 VH with S16A, G44R, A72R, K74T, T76A
VL: B4 VL with L4M, L13V, D74E, E83Q, P84S
B12: Humanized antibody VH3 + VL1 (antibody, human IgG1, kappa, V domains shown)
VH: B3 VH with S16A, I70M, A72R, K74T, A79V
VL: B3 VL
B13: Humanized antibody VH1 + VL3 (antibody, human IgG1, kappa, V domains shown)
VH: B3 VH
VL: B4 VL
B14: Ab Vh1G56A-VL1W100F (antibody, human IgG1, kappa, V domains shown)
VH: B3 VH with G56A
VL: B3 VL with W100F
notes: also called double mutant
B15: Humanized antibody VH1-VL1 M37A (antibody, human IgG1, kappa, V domains shown)
VH: B3 VH
VL: B3 VL with M37A
B16: Humanized antibody VH1-VL1 Q94E (antibody, human IgG1, kappa, V domains shown)
VH: B3 VH
VL: B3 VL with Q94E
B17: Humanized antibody VH3 + VL2 (antibody, human IgG1, kappa, V domains shown)
VH: B3 VH with S16A, I70M, A72R, K74T, A79V
VL: B5 VL
B18: Humanized antibody VH1(G56A) + VL1 (antibody, human IgG1, kappa, V domains shown)
VH: B3 VH with G56A
VL: B3 VL
notes: also called VHG56A-VL1; Humanized VHG56A-VL1
B19: Ab Vh1-VL1W100F (antibody, human IgG1, kappa, V domains shown)
VH: B3 VH
VL: B3 VL with W100F
notes: also called single mutant W100F
B20: Humanized antibody VH3 + VL3 (antibody, human IgG1, kappa, V domains shown)
VH: B3 VH with S16A, I70M, A72R, K74T, A79V
VL: B4 VL
B21: Humanized antibody VH3 + VL4 (antibody, human IgG1, kappa, V domains shown)
VH: B3 VH with S16A, I70M, A72R, K74T, A79V
VL: B4 VL with L4M, L13V, D74E, E83Q, P84S
B22: Humanized antibody VH4 + VL2 (antibody, human IgG1, kappa, V domains shown)
VH: B3 VH with S16A, P41T, A72R, D73N, K74T, T76I
VL: B5 VL
B23: Humanized antibody VH1 + VL4 (antibody, human IgG1, kappa, V domains shown)
VH: B3 VH
VL: B4 VL with L4M, L13V, D74E, E83Q, P84S
notes: also called U3621EI120 VH1+VL4
B24: Humanized antibody VH4 + VL4 (antibody, human IgG1, kappa, V domains shown)
VH: B3 VH with S16A, P41T, A72R, D73N, K74T, T76I
VL: B4 VL with L4M, L13V, D74E, E83Q, P84S
B25: Humanized antibody VH4 + VL1 (antibody, human IgG1, kappa, V domains shown)
VH: B3 VH with S16A, P41T, A72R, D73N, K74T, T76I
VL: B3 VL
B26: Humanized antibody VH4 + VL3 (antibody, human IgG1, kappa, V domains shown)
VH: B3 VH with S16A, P41T, A72R, D73N, K74T, T76I
VL: B4 VL

Assays:
[1] = biological target: T1, Human IL13Rα2; experiment: plate ELISA on human recombinant IL13Rα2, OD405, N=3
[2] = biological target: T1, Human IL13Rα2; experiment: SPR Biacore 8K affinity ranking, antibody supernatant Fc-captured, 100 nM IL13Rα2 analyte
[3] = biological target: T1, Human IL13Rα2; experiment: SPR Biacore T200, antibody Fc-captured, IL13Rα2 as analyte
[4] = biological target: T1, Human IL13Rα2; experiment: SPR Biacore T200, purified IgG Fc-captured, IL13Rα2 as analyte
[5] = biological target: T2, human recombinant IL13Rα2hFc (cat …); experiment: plate ELISA on coated IL13Rα2hFc (1 µg/mL), detection with anti-6xHis-HRP, OD450 [continued) D]
[6] = biological target: T1, Human IL13Rα2; experiment: SPR Biacore T200, antibody captured, IL13Rα2 analyte 0.9375-60 nM
[7] = biological target: T1, Human IL13Rα2; experiment: plate ELISA on human recombinant IL13Rα2, OD405, N=4
[8] = biological target: T1, Human IL13Rα2; experiment: plate ELISA on human IL13Rα2, OD405, N=4 [continued) B]
[9] = biological target: T1, Human IL13Rα2; experiment: SPR Biacore T200, 25 C, antibody captured on Protein A chip, IL13Ra2 analyte 0.625-80 nM

Row | Binder | Kd [2] [nM] | koff [2] [s⁻¹] | kon [2] [M⁻¹ s⁻¹] | other results
1 | B1 | 1.07 | 0.000544 | 511000 | EC50 (read off the curve) [1]: ~0.03 µg/mL; Kd [3]: 1.44 nM; koff [3]: 0.000523 s⁻¹; kon [3]: 363000 M⁻¹ s⁻¹; Kd [4]: 1.45 nM; koff [4]: 0.000477 s⁻¹; kon [4]: 330000 M⁻¹ s⁻¹
2 | B2 |  |  |  | EC50 (read off the curve) [5]: ~0.5 µg/mL
3 | B3 | 0.768 | 0.000329 | 429000 | Kd [6]: 0.257 nM; koff [6]: 0.00019 s⁻¹; kon [6]: 740000 M⁻¹ s⁻¹; EC50 (read off the curve) [7]: ~0.02 µg/mL; EC50 (read off the curve) [1]: ~0.02 µg/mL; EC50 (read off the curve) [8]: ~0.05 µg/mL; Kd [4]: 0.283 nM; koff [4]: 0.000191 s⁻¹; kon [4]: 676000 M⁻¹ s⁻¹
4 | B4 | 1.17 | 0.000761 | 649000 | Kd [4]: 0.513 nM; koff [4]: 0.00042 s⁻¹; kon [4]: 820000 M⁻¹ s⁻¹
5 | B5 | 0.857 | 0.000555 | 648000 | 
6 | B6 |  |  |  | EC50 (read off the curve) [7]: ~0.04 µg/mL
7 | B7 |  |  |  | EC50 (read off the curve) [7]: ~0.03 µg/mL
8 | B8 | 0.758 | 0.000312 | 412000 | 
9 | B9 | 0.704 | 0.000417 | 593000 | 
10 | B10 |  |  |  | binding result [7]: binds
11 | B11 | 1.35 | 0.000748 | 555000 | 
12 | B12 | 0.661 | 0.000595 | 901000 | 
13 | B13 | 0.9 | 0.000463 | 514000 | 
14 | B14 |  |  |  | Kd [9]: 0.277 nM; koff [9]: 0.000284 s⁻¹; kon [9]: 1.02e+06 M⁻¹ s⁻¹; EC50 (read off the curve) [8]: ~0.03 µg/mL
15 | B15 |  |  |  | binding result [7]: binds
16 | B16 |  |  |  | EC50 (read off the curve) [7]: ~0.01 µg/mL
17 | B17 | 0.698 | 0.000595 | 852000 | 
18 | B18 |  |  |  | Kd [6]: 0.215 nM; koff [6]: 0.000156 s⁻¹; kon [6]: 727000 M⁻¹ s⁻¹; EC50 (read off the curve) [1]: ~0.02 µg/mL
19 | B19 |  |  |  | EC50 (read off the curve) [7]: ~0.03 µg/mL; Kd [9]: 0.326 nM; koff [9]: 0.000334 s⁻¹; kon [9]: 1.03e+06 M⁻¹ s⁻¹; EC50 (read off the curve) [8]: ~0.03 µg/mL
20 | B20 | 1.13 | 0.000702 | 620000 | 
21 | B21 | 0.984 | 0.000615 | 625000 | 
22 | B22 | 0.597 | 0.000445 | 746000 | 
23 | B23 | 0.599 | 0.000269 | 449000 | Kd [4]: 0.297 nM; koff [4]: 0.00022 s⁻¹; kon [4]: 741000 M⁻¹ s⁻¹
24 | B24 | 0.594 | 0.000501 | 844000 | 
25 | B25 | 0.727 | 0.000424 | 583000 | 
26 | B26 | 0.877 | 0.000675 | 769000 | 
